The values that follow come from the nanobody polyreactivity screen of Harvey et al. (2022).

The nature of the data set: yeast display, Sf9 membrane polyspecificity reagent, FACS + sequencing; frameworks hold sequencing errors. The method, boiled down: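 Galactose induction of a Saccharomyces cerevisiae BJ5465 synthetic nanobody display library ran 36–48 hours. The cells were then stained for 1 hour at 4 °C with 10% biotinylated, detergent-solubilized Sf9 membrane reagent, pulled down on streptavidin microbeads and FACS-sorted into low and high (top ~1%) gates on expression and reagent-binding fluorescence. Labels for polyreactivity follow the gate of origin.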
As for “QVQLVESGGGLVQAGGSLRLSCAASGFTFRSYTMGWYRQAPGKERELVASIRYGGGSTYYADSVKGRFTISRDNAKNTVYLQMNSLKPEDTAVYYCSAESAWTSPYDYWGQGTQVTVSS”, the “polyreactivity (PSR sort gate)” value was “high polyreactivity”.
Take “QVQLVESGGGLVQAGGSLRLSCAASGFTFRTNAMGWYRQAPGKEREFVATITRRGGSTYYADSVKGRFTISRDNAKKTVYLQLNSLKPEDTAVYYCNAVFSSQEYEYWGQGTQVTVSS”: the “polyreactivity (PSR sort gate)” value is recorded as “high polyreactivity”.
In the case of “QVQLVESGGGLVQAGGSLRLSCAASGFTFRVYAMGWYRQAPGKERELVASITWSGASTYYADSVKGRFTISRDNAKNTVYLQMNSLKPEDTAVYYCAAKYSDYQYGRYYYWGQGTQVTVSS” it was “high polyreactivity”; in that of “QVQLVESGGGLVQAGGSLRLSCAASGFTFRWYAIGWYSQAPGKEREFVATISTRGGNTYYADSVKGRFTISRDNAKNTVYLQMNSLKPEDTAVYYSAAVGYAAYHRMDYWGQGTQVNVSS”, “high polyreactivity”; in that of “QVQLVESGGGLVQAGGSLRLSCAASGFTFRWYDMGWYRQAPGKERELVAAIDASDGSTYYADSVKGRFTISRDNAKNTVYLQMNSLKPEDTAVYYCAADSYYRYYWGQGTQVTVSS”, “high polyreactivity”.
As for “QVQLVESGGGLVQAGGSLRLSCAASGFTFRWYDMGWYRQAPGKERELVAAITWRGDNTYYADSVKGRFTISRDNAKNTVYLQMNSLKPEDTAVYYCAAAWPTFISDLSGVDYWGQGTQVTVSS”, the “polyreactivity (PSR sort gate)” value is recorded as “low polyreactivity”.
Take “QVQLVESGGGLVQAGGSLRLSCAASGFTFRYNAMGWYRQAPGKERELVAAITNGGSTYADSVKGRFTISRDNAKNTVYLQMNSLKPEDTAVYYCAADYFVLTYYLWSYSPYKSFYYWGQGTQVTLSS”: the “polyreactivity (PSR sort gate)” value is on record as “low polyreactivity”.
Regarding “QVQLVESGGGLVQAGGSLRLSCAASGFTFRYNAMGWYRQAPGKERELVAAITSDVSTNYADSVKGRFTISRDNAKNTVYLEMNSLKAEDTAVYYCAKGTAKRIVGRSPGNTYEDHYWGQGTEVTVSS”, the “polyreactivity (PSR sort gate)” value is “low polyreactivity”.
“QVQLVESGGGLVQAGGSLRLSCAASGFTFRYYAMGWYRQAPGKEREFVAAIRRSGANTYYADSVKGRFTISRDNAKNTVYLQMNSLKPEDTAVYYCGTRLRGSGRLYNYWGQGTQVTVSS”: the “polyreactivity (PSR sort gate)” value is given as “high polyreactivity”.
For “QVQLVESGGGLVQAGGSLRLSCAASGFTFRYYAMGWYRQAPGKEREFVAAISWSGGSTYYADSVKGRFTISRDNAKNTVYLQMNSLKPEDTAVYYCNRVPRARKGDYWGQGTQVTVSS”, the “polyreactivity (PSR sort gate)” value is listed as “high polyreactivity”.
As to “QVQLVESGGGLVQAGGSLRLSCAASGFTFRYYAMGWYRQAPGKEREFVAAITRSGGRTYYADSVKGRFTISRDNAKNTVYLQMNSLKPEDTAVYYCAARYVSRFDWGQGTQVTVSS”, the “polyreactivity (PSR sort gate)” value is “high polyreactivity”.
For the sequence “QVQLVESGGGLVQAGGSLRLSCAASGFTFRYYAMGWYRQAPGKERELVAAISWSGASTYYADSVKGRFTISRDNAKNTVYLQMNSLKPEDTAVYYCAADIPGTYYYWGQGTEVTVSS”, the “polyreactivity (PSR sort gate)” value is “high polyreactivity”.
Turning to “QVQLVESGGGLVQAGGSLRLSCAASGFTFRYYAMGWYRQAPGKERELVAAITRSGGSTSYADSVKGRFTISRDNAKNNVYLQMNSLKPEDTAVYYCNTSTSRVPGNGDYWGQGTQVTVSS”, the “polyreactivity (PSR sort gate)” value is on record as “high polyreactivity”.
As to “QVQLVESGGGLVQAGGSLRLSCAASGFTFRYYAMGWYRQAPGKERELVAAITSGDSTYYADSVKGRFTISRDKAKNTVYLQMNSLKPEDTAVYYCAAYSWLYEGYEYWGQGTQVTVSS”, the “polyreactivity (PSR sort gate)” value was “high polyreactivity”.
The same measure for “QVQLVESGGGLVQAGGSLRLSCAASGFTFRYYAMGWYRQAPGKERELVASISRSGSGTFYADSVKGRFTISRDNAKNTVYLQMNSLKPEDTAVYYCNAVSAAKIPFQKYGYWGQGTQVTVSS”: “high polyreactivity”.
The same measure for “QVQLVESGGGLVQAGGSLRLSCAASGFTFRYYAMGWYRQAPGKERELVATISRGGSTNYVDSVKGRFTISRDNAKNTVYLQMNRLKPEDPAVYSCNARYKGWWVSTDSSTDDYWGQGTQVTVSS”: “high polyreactivity”; for “QVQLVESGGGLVQAGGSLRLSCAASGFTFRYYAMGWYRQAPGKERELVATITTSGGSTYYADSVKGRFTISRDNAKNTVYVQMNSLKPEDTAVYYCAADYYYGRRFRSWRDFNYWGQGTQVTVSS”: “high polyreactivity”.
On to “QVQLVESGGGLVQAGGSLRLSCAASGFTFRYYAMGWYSQAPGKERELVAAITRSGGSTYYADSVKGRFTISRDNAKNTVYLQMNSLKPDDTGVYYCAARGHYRDGDEYWGQGTEVTVSS”, for which the “polyreactivity (PSR sort gate)” value is reported as “high polyreactivity”.
“QVQLVESGGGLVQAGGSLRLSCAASGFTFRYYAMVWYRQAPGKERELVAAITSGDSTYYADSVKGLFTISRDNAKNTVYLQMNSLKPEDTAVYYCAAYSWLFEGYEYWGQGTIVTVSS”: the “polyreactivity (PSR sort gate)” value is listed as “high polyreactivity”.
In the case of “QVQLVESGGGLVQAGGSLRLSCAASGFTFRYYTLGWYRQAPGKERELVAVMRSTGSTNYADSVKGRFTISRDNAKNTVYLQMNSLKAEDTAVYYCNAARGWYNPPKYGSIGFDYWGQGTQVTVSS” it was “high polyreactivity”.
For “QVQLVESGGGLVQAGGSLRLSCAASGFTFRYYVMGWSRQAPGKESELVAAICWSGGSTYYADSVKVRFTISRDNAKNTVYLQMNRLKPEDTAFYYCNARRYFRTSQQPLYDYWGQGTQVTVSS”, the “polyreactivity (PSR sort gate)” value is “high polyreactivity”.
The same measure for “QVQLVESGGGLVQAGGSLRLSCAASGFTFSAYAMGWYRQAPGKERELVVAISLSGGSTYYADSVKGRFTISRDNAKNTVYLQMNSLKPEDTAVYYCNADSYWHWGEWLYAPYDYWGQGTQVTVSS”: “low polyreactivity”; for “QVQLVESGGGLVQAGGSLRLSCAASGFTFSDNAMGWYRQAPGKERELVAASSRSGGRTYYADSVKGRFTISRDNAKNTVYLQMNSLKPEDTAVYYCNARRLSTGFDRYDYWGQGTQVTVSS”: “high polyreactivity”; for “QVQLVESGGGLVQAGGSLRLSCAASGFTFSDYAMGWYRQAPGKERELVAAISSSGGSTYYADSVKGRFTISRDNAKNTVYLQMNSLKPEDNAVYYCAASSYSFRYRYDTWWYYYWGQGTQVTVSS”: “high polyreactivity”.
In the case of “QVQLVESGGGLVQAGGSLRLSCAASGFTFSFYAMGWYRQAPGKERELVAGISKRGGSTYYADSVKGRFTISRDNAKNTVYLQMNSLKPEDTAVYYCAKRSSLYRSLVDYWGQGTQVTVSS” it was “high polyreactivity”.
On to “QVQLVESGGGLVQAGGSLRLSCAASGFTFSGYDMGWYRQAPGKERELVAGISSVDHTYYADSVKGRFTISRDNAKNTVYLQMNSLKPEDTAVYYCAATLWPYYYVEYDYWGQGTEVTVSS”, for which the “polyreactivity (PSR sort gate)” value is recorded as “low polyreactivity”.
With “QVQLVESGGGLVQAGGSLRLSCAASGFTFSHYAMGWYRQAPGKEREVVADISRRGGRTYYADSVKGRFTISRDNAKNTVSLQMNSLKPEDTAVYYCAAPDESYSVWRLDGLDYWGQGTQVTVSS”, the “polyreactivity (PSR sort gate)” value is reported as “high polyreactivity”.
On to “QVQLVESGGGLVQAGGSLRLSCAASGFTFSHYPMGWYRQAPGKERELVASISRRCGTTYYADSVKGRFTISRDNAKNTVYLQMNSLKPEDTAVYYCAVDLYIYYREYDYWGQGTQVTVSS”, for which the “polyreactivity (PSR sort gate)” value is on record as “high polyreactivity”.
As to “QVQLVESGGGLVQAGGSLRLSCAASGFTFSINAMGWYRKAPGKERELVAGISWSGGITYYADSVKGRFTISRDNAKNTVYLQMNSLKPEDTAVYYCNTDYGLTTPVVWDDYWGQGTQVTVSS”, the “polyreactivity (PSR sort gate)” value is listed as “low polyreactivity”.
In the case of “QVQLVESGGGLVQAGGSLRLSCAASGFTFSINTMGWYRQAPGKEREFVAGISRSGGSTYYADSVKGRFTISRDNAKNTVYLQMNSLKPEDTAVYYCLKYYQGYDYWGQGTQVTVSS” it was “high polyreactivity”.
In the case of “QVQLVESGGGLVQAGGSLRLSCAASGFTFSKNTMGWYRQAPGKERELVAVITRGGGTYYADSVKGRFTISRDNAKNTVYLQMNSLKPEDTAVYYCAVKRNTAYRQAYYLDDYWGQGTQVTVSS”, the “polyreactivity (PSR sort gate)” value is listed as “high polyreactivity”.
Take “QVQLVESGGGLVQAGGSLRLSCAASGFTFSNYAMGWYRQAPGKERELVAAISKRGGSTYYADSVKGRFTISRDNAKNTVYLQRNSLKPEDTAVYYCAAYGGYIRRSVPVWGYYYWGQGTQVTVSS”: the “polyreactivity (PSR sort gate)” value is “high polyreactivity”.
With “QVQLVESGGGLVQAGGSLRLSCAASGFTFSNYAMGWYRQAPGKERELVAAISRSGGSTYYADSVKGRFTISRDNAKNTVYLQMNSLKPEDTAVYYCNADRYRVWYRRYDYWGQGTQVTVSS”, the “polyreactivity (PSR sort gate)” value is on record as “high polyreactivity”.
In the case of “QVQLVESGGGLVQAGGSLRLSCAASGFTFSPNAMGWYRQAHGKESELVAAIDWSGDRTYYADSVKGRFTISRDNAKKTVYLQINSLKPEDTAVYYCNVVRRSPGDYTYYYWGQGTQVTVSS” it was “low polyreactivity”; in that of “QVQLVESGGGLVQAGGSLRLSCAASGFTFSPNARGWYRQAPGKERELVAAISKGGSSTYYADSVKGRFTISRDNAKNTVYLQMNSLKPEDTAVYYCARPSTHKGYDYWGQGTQVTVSS”, “high polyreactivity”.
As to “QVQLVESGGGLVQAGGSLRLSCAASGFTFSPYTMGWSRQAPGKERELVATIRYDGTSTYYADSVKGRFTISRDNAKNTVYLQMNSLKREDTAVYYCAAEIWRVYSTFYYWGQGTQVSVSS”, the “polyreactivity (PSR sort gate)” value is reported as “low polyreactivity”.
The same measure for “QVQLVESGGGLVQAGGSLRLSCAASGFTFSQYAMGWYRQAPGKERELVAAISRSGGSTYYADSVKGRFTISRDNAKNTVYLQMNSLKPEDTAVYYCAAQPGRRAGRSGFDYWGQCTQVTVSS”: “high polyreactivity”; for “QVQLVESGGGLVQAGGSLRLSCAASGFTFSRNAMGWYRQAPGKERELVAAIDSGGSTDYADSVKGRFTISRANAKKTVYLQMNSLKPEDTAVYYCAKASSATRYVQLRQDYDYWGQGTQVTVSS”: “low polyreactivity”; for “QVQLVESGGGLVQAGGSLRLSCAASGFTFSRNAMGWYRQAPGKERELVAAITWSGGRTYYADSVKGRFTISRDNAKNTVYLQMNSLKPEDTAVYYCAARKYHLRSAYDYWGQGTQVTVSS”: “low polyreactivity”.
In the case of “QVQLVESGGGLVQAGGSLRLSCAASGFTFSRYAMGWYRQAPGKERELVAAISLRGGRTYYADSVKGRFTISRDKTKNSVYLQMNSLKPEDTAVYYCNRDYRGPYYYWGQGSQVTVSS” it was “high polyreactivity”.
